Literature values in paper PMC8757841.

Molecular target: Transferrin receptor (Rattus norvegicus) (UniProt Q99376)
UniProt Q99376, sequence (Q99376 whole entry): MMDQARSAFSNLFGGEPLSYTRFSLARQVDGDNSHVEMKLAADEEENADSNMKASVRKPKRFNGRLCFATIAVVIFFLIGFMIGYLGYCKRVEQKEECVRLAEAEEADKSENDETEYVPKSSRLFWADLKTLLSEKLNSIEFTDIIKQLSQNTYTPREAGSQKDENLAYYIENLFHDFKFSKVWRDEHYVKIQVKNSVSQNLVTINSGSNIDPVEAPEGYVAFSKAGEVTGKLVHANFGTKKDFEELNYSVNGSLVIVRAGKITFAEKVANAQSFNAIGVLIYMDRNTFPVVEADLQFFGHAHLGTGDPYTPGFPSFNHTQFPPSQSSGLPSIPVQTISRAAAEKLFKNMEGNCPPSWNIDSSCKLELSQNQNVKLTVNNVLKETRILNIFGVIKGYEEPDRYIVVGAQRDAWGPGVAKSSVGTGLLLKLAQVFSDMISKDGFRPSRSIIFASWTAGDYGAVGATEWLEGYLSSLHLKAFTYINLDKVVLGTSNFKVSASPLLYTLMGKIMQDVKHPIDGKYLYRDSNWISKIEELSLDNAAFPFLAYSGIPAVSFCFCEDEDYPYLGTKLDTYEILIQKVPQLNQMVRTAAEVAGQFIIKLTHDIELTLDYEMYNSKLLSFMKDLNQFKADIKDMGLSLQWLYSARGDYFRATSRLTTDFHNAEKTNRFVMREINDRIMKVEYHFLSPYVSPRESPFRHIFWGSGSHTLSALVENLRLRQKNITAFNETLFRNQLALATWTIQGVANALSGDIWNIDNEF

Transferrin, sequence (P12346 20-698): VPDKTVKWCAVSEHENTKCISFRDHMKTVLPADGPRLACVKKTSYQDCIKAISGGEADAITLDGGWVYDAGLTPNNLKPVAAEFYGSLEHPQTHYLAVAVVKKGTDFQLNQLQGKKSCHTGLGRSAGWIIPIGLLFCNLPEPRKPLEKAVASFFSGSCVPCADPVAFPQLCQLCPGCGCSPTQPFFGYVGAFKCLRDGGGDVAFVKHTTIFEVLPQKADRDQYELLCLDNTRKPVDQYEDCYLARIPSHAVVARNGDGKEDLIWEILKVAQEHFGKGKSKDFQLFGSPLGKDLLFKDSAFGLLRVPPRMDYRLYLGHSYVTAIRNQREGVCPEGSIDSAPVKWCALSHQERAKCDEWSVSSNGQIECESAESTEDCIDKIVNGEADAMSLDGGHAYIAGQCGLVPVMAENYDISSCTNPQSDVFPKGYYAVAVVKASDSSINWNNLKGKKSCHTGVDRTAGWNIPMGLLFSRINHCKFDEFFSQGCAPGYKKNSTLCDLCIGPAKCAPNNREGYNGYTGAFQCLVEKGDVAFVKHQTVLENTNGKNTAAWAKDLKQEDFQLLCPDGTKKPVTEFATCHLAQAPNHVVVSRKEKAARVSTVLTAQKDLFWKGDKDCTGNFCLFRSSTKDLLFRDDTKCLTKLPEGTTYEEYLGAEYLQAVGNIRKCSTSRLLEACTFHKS

Kd: 5 nM
Substance: Transferrin (from UniProt P12346)
